Measured values from patent US20240400720A1 (NOVIMMUNE S A, published 2024).

Key:
[1] = target: T1, human CD47 (human, UniProt Q08722 19-141, limits assumed); assay: affinity maturation by phage display on hCD47; positive in hCD47-SIRPα inhibition screen, reformatted as IgG
T1 construct: also called hCD47

[2] = target: T2, human CD47 on the cell surface (human, UniProt Q08722 19-323); assay: CD47-SIRPα competitive binding assay: His-tagged soluble human SIRPα (200 ng/ml) on hCD47-transfected CHO cells, antibody 3.3 pM-330 nM; blocked ligand SIRPα
T2 construct: whole, on cells; also called huCD47; native CD47

binding result [1]	binding result [2]	Binder
binds	binds	Ka3D3 antibody (antibody, human IgG1, kappa, V domains shown, IgG) VH: not shown VL: DIQMTQSPSSLSASVGDRVTITCRASQSIGKYLNWYQQKPGKAPKLLIYAASRLQSGVPSRFSGSGSGTDFTLTISSLQPEDFATYYCQQMHPRAPKTFGQGTKVEIKR
binds	binds	Ke8H3 antibody (antibody, human IgG1, kappa, V domains shown, IgG) VH: not shown VL: DIQMTQSPSSLSASVGDRVTITCRASQSINRYLNWYQQKPGKAPKLLIYAASRLQSGVPSRFSGSGSGTDFTLTISSLQPEDFATYYCQQKHPRGPRTFGQGTKVEIKR
binds	binds	Ke8C4 antibody (antibody, human IgG1, kappa, V domains shown, IgG) VH: not shown VL: DIQMTQSPSSLSASVGDRVTITCRASQSISRYLNWYQQKPGKAPKLLIYAASNLQSGVPSRFSGSGSGTDFTLTISSLQPEDFATYYCQQMHPRGPKTFGQGTKVEIKR
binds	binds	Ke8A8 antibody (antibody, human IgG1, kappa, V domains shown, IgG) VH: not shown VL: DIQMTQSPSSLSASVGDRVTITCRASQSISKYLNWYQQKPGKAPKLLIYAASTLQSGVPSRFSGSGSGTDFTLTISSLQPEDFATYYCQQMHPRAPKTFGQGTKVEIKR
binds	binds	Ka3H8 antibody (antibody, human IgG1, kappa, V domains shown, IgG) VH: not shown VL: DIQMTQSPSSLSASVGDRVTITCRASQSIASYLNWYQQKPGKAPKLLIYAASRLQSGVPSRFSGSGSGTDFTLTISSLQPEDFATYYCQQMHPRSPKTFGQGTKVEIKR
binds	binds	Ke8B7 antibody (antibody, human IgG1, kappa, V domains shown, IgG) VH: not shown VL: DIQMTQSPSSLSASVGDRVTITCRASQSIGKYLNWYQQKPGKAPKLLIYAASSLQSGVPSRFSGSGSGTDFTLTISSLQPEDFATYYCQQMHPRSPKTFGQGTKVEIKR
binds	binds	Ke8A4 antibody (antibody, human IgG1, kappa, V domains shown, IgG) VH: not shown VL: DIQMTQSPSSLSASVGDRVTITCRASQSIAKYLNWYQQKPGKAPKLLIYAASSLQSGVPSRFSGSGSGTDFTLTISSLQPEDFATYYCQQFHKRSPQTFGQGTKVEIKR
binds	–	Ke8F2 antibody (antibody, human IgG1, kappa, V domains shown, IgG) VH: not shown VL: DIQMTQSPSSLSASVGDRVTITCRASQSIDKYLNWYQQKPGKAPKLLIYAASSLQSGVPSRFSGSGSGTDFTLTISSLQPEDFATYYCQQKHPRAPRTFGQGTKVEIKR
binds	binds	Ka3C5 antibody (antibody, human IgG1, kappa, V domains shown, IgG; also called KA3-P5C5) VH: not shown VL: DIQMTQSPSSLSASVGDRVTITCRASQSISRYLNWYQQKPGKAPKLLIYSASSLQSGVPSRFSGSGSGTDFTLTISSLQPEDFATYYCQQMHPRAPKTFGQGTKVEIKR
binds	binds	Ke8B2 antibody (antibody, human IgG1, kappa, V domains shown, IgG; also called KE8-P3B2) VH: not shown VL: DIQMTQSPSSLSASVGDRVTITCRASQSIGKYLNWYQQKPGKAPKLLIYAASRLQSGVPSRFSGSGSGTDFTLTISSLQPEDFATYYCQQKHPRAPRTFGQGTKVEIKR
binds	binds	Ka3G2 antibody (antibody, human IgG1, kappa, V domains shown, IgG; also called KA3-P5G2) VH: not shown VL: DIQMTQSPSSLSASVGDRVTITCRASQSIDKYLNWYQQKPGKAPKLLIYAASRLQSGVPSRFSGSGSGTDFTLTISSLQPEDFATYYCQQMHPRGPKTFGQGTKVEIKR
binds	binds	Ka3A2 antibody (antibody, human IgG1, kappa, V domains shown, IgG) VH: not shown VL: DIQMTQSPSSLSASVGDRVTITCRASQSISKYLNWYQQKPGKAPKLLIYAASRLQSGVPSRFSGSGSGTDFTLTISSLQPEDFATYYCQQMHPRSPKTFGQGTKVEIKR
binds	binds	Ke8E8 antibody (antibody, human IgG1, kappa, V domains shown, IgG) VH: not shown VL: DIQMTQSPSSLSASVGDRVTITCQASQDINKYLNWYQQKPGKAPKLLIYAASSLQSGVPSRFSGSGSGTDFTLTISSLQPEDFATYYCQQKHPRGPRTFGQGTKVEIKR
binds	binds	Ke8G2 antibody (antibody, human IgG1, kappa, V domains shown, IgG) VH: not shown VL: DIQMTQSPSSLSASVGDRVTITCRASQSIGRYLNWYQQKPGKAPKLLIYAASRLQSGVPSRFSGSGSGTDFTLTINSLQPEDFATYYCQQKHPRAPRTFGQGTKVEIKR
binds	binds	Ka3H3 antibody (antibody, human IgG1, kappa, V domains shown, IgG) VH: not shown VL: DIQMTQSPSSLSASVGDRVTITCQASQDIAKYLNWYQQKPGKAPKLLIYAASALQSGVPSRFSGSGSGTDFTLTISSLQPEDFATYYCQQMHPRSPKTFGQGTKVEIKR
–	binds	5A3M4 (antibody, human IgG1, kappa, V domains shown, the list MOLECULES holds only the monovalent form; also called 5A3-M4 antibody) VH: not shown VL: DIQMTQSPSSLSASVGDRVTITCQASQDINKYLNWYQQKPGKAPKLLIYGASRLETGVPSRFSGSGSGTDFTFTISSLQPEDIATYYCQQKHPRNPRTFGQGTKVEIKR
binds	binds	Ke8H5 antibody (antibody, human IgG1, kappa, V domains shown, IgG; also called KE8-P6H5) VH: not shown VL: DIQMTQSPSSLSASVGDRVTITCRASQSIARYLNWYQQKPGKAPKLLIYAASSLQSGVPSRFSGSGSGTDFTLTISSLQPEDFATYYCQQFHKRAPQTFGQGTKVEIKR
binds	binds	Ka3A3 antibody (antibody, human IgG1, kappa, V domains shown, IgG; also called KA3-P1A3) VH: not shown VL: DIQMTQSPSSLSASVGDRVTITCRASQSIASYLNWYQQKPGKAPKLLIYAASRLQSGVPSRFSGSGSGTDFTLTISSLQPEDFATYYCQQMHPRAPKTFGQGTKVEIKR
binds	binds	Ke8F1 antibody (antibody, human IgG1, kappa, V domains shown, IgG) VH: not shown VL: DIQMTQSPSSLSASVGDRVTITCRASQSIASYVNWYQQKPGKAPKLLIYAASGLQSGVPSRFSGSGSGTDFTLTISSLQPEDFATYYCQQFHKRRPQTFGQGTKVEIKR
binds	binds	Ke8G6 antibody (antibody, human IgG1, kappa, V domains shown, IgG) VH: not shown VL: DIQMTQSPSSLSASVGDRVTITCRASQSIGRYLNWYQQKPGKAPKLLIYAASSLQSGVPSRFSGSGSGTDFTLTISSLQPEDFATYYCQQMHPRAPKTFGQGTKVEIKR
binds	binds	Ke8G11 antibody (antibody, human IgG1, kappa, V domains shown, IgG) VH: not shown VL: DIQMTQSPSSLSASVGDRVTITCRASQSIGRYLNWYQQKPGKAPKLLIYAASSLQSGVPSRFSGSGSGTDFTLTISSLQPEDFATYYCQQMHPRGPKTFGQGTKVEIKR
binds	binds	Ke8C7 antibody (antibody, human IgG1, kappa, V domains shown, IgG) VH: not shown VL: DIQMTQSPSSLSASVGDRVTITCQASQDINRYLNWYQQKPGKAPKLLIYAASSLQSGVPSRFSGSGSGTDFTLTISSLQPEDFATYYCQQRHPRGPRTFGQGTKVEIKR
binds	binds	Ka3B2 antibody (antibody, human IgG1, kappa, V domains shown, IgG) VH: not shown VL: DIQMTQSPSSLSASVGDRVTITCRASQNIGKYLNWYQQKPGKAPKLLIYSASRLQSGVPSRFSGSGSGTDFTLTISSLQPEDFATYYCQQMHPRAPKTFGQGTKVEIKR
